# Source: the supplement of paper PMC7877785
# ± gives the uncertainty stated by the source.
# Assay: self-splicing fitness, log relative to wild type (ln ratio); higher = more splicing; Tetrahymena group I intron in knt gene, E. coli kanamycin selection, DiMSum; sequences stand for … in CUCUCU…GGAGGGAAAAGUUAUCAGGCAUGCACCUGGUAGCUAGUCUUUAAACCAAUAGAUUGCAUCGGUUUAAAAGGCAAGACCGUCAAAUUGCGGGAAAGGGGUCAACAGCCGUUCAGUACCAAGUCUCAGGGGAAACUUUGAGAUGGCCUUGCAAAGGGUAUGGUAAUAAGCUGACGGACAUGGUCCUAACCACGCAGCCAAGUCCUAAGUCAACAGAUCUUCUGUUGAUAUGGAUGCAGUUCACAGACUAAAUGUCGGUCGGGGAAGAUGUAUUCUUCUCAUAAGAUAUAGUCGGACCUCUCCUUAAUGGGAGCUAGCGGAUGAAGUGAUGCAACACUGGAGCCGCUGGGAACUAAUUUGUAUGCGAAAGUAUAUUGAUUAGUUUUGGAGUACUCGUGGUCG
# Method in brief: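 Library with all eight P1ex-region intron nucleotides randomised, intron inside the knt kanamycin-resistance gene on pET-22b(+), in E. coli BL21(DE3). Cells grew overnight at 37°C or 30°C on LB agar with or without 25 μg/mL kanamycin (plus 100 μg/mL carbenicillin, 50 μM IPTG, 0.2% rhamnose), in six replicate transformations. Pooled colonies were amplicon-sequenced on Illumina HiSeq 2500. DiMSum fitness is the error-weighted combination of wild-type-normalised replicate fold changes, kanamycin versus none.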
Sequence,self-splicing fitness (ln) (30 °C),self-splicing fitness (ln) (37 °C)
UCAUAGCAAUAUUACGGACA,-2.48 ± 0.21,-0.42 ± 0.15
UCAUAGCAAUAUUACGGACG,-1.17 ± 0.15,-1.11 ± 0.17
UCAUAGCAAUAUUACGGCCG,-0.395 ± 0.15,0.157 ± 0.16
UCAUAGCAAUAUUACGGCGG,-0.555 ± 0.059,0.417 ± 0.074
UCAUAGCAAUAUUACGGGAA,-1.35 ± 0.19,-1.1 ± 0.16
UCAUAGCAAUAUUACGGGAG,-3.39 ± 0.26,-3.06 ± 0.29
UCAUAGCAAUAUUACGGUGA,-2.39 ± 0.13,-2 ± 0.12
UCAUAGCAAUAUUACGGUUC,-3.57 ± 0.35,
UCAUAGCAAUAUUACGUGUC,-3.2 ± 0.21,-3.08 ± 0.27
UCAUAGCAAUAUUACGUUUA,-4.13 ± 0.39,-2.11 ± 0.2
UCAUAGCAAUAUUACGUUUU,-2.81 ± 0.14,-1.29 ± 0.14
UCCAAGCAAUAUUACGAACU,-2.6 ± 0.15,-1.06 ± 0.15
UCCAAGCAAUAUUACGAAUG,-4.26 ± 0.21,-2.95 ± 0.2
UCCAAGCAAUAUUACGACUG,-3.78 ± 0.16,-2.6 ± 0.17
UCCAAGCAAUAUUACGAGCA,-0.834 ± 0.08,-0.0464 ± 0.1
UCCAAGCAAUAUUACGAGUU,-3.75 ± 0.28,-1.33 ± 0.2
UCCAAGCAAUAUUACGAUCG,-2.65 ± 0.19,-3.06 ± 0.24
UCCAAGCAAUAUUACGCAUC,-3.02 ± 0.21,-2.93 ± 0.24
UCCAAGCAAUAUUACGCCUC,-2.33 ± 0.29,-2.53 ± 0.28
UCCAAGCAAUAUUACGCCUG,-4.15 ± 0.42,-2.26 ± 0.27
UCCAAGCAAUAUUACGCGAG,-4.03 ± 0.24,-2.93 ± 0.27
UCCAAGCAAUAUUACGCUGA,-1.43 ± 0.092,-1.07 ± 0.085
UCCAAGCAAUAUUACGCUGC,-2.94 ± 0.21,-2.61 ± 0.27
UCCAAGCAAUAUUACGCUUG,-3.72 ± 0.17,-2.11 ± 0.28
UCCAAGCAAUAUUACGGAAG,-1.85 ± 0.2,-1.8 ± 0.24

Sequence,self-splicing fitness (ln) (30 °C),self-splicing fitness (ln) (37 °C)
UCCAAGCAAUAUUACGGACG,-4.26 ± 0.2,-2.82 ± 0.16
UCCAAGCAAUAUUACGGCGU,-1.95 ± 0.091,-0.529 ± 0.1
UCCAAGCAAUAUUACGGUAA,-0.334 ± 0.067,0.257 ± 0.076
UCCAAGCAAUAUUACGUAUU,-3.44 ± 0.19,-2.46 ± 0.21
UCCAAGCAAUAUUACGUCGG,-1.11 ± 0.074,-0.182 ± 0.091
UCCAAGCAAUAUUACGUGCA,-0.24 ± 0.083,0.425 ± 0.11
UCCAAGCAAUAUUACGUUAG,-1.97 ± 0.13,-2.91 ± 0.28
UCCAAGCAAUAUUACGUUGU,-3.79 ± 0.16,-1.7 ± 0.13
UCCAAGCAAUAUUACGUUUA,-3.15 ± 0.12,-1.98 ± 0.11
UCCAAGCAAUAUUACGUUUG,-3.5 ± 0.15,-2.97 ± 0.2
UCCCAGCAAUAUUACGAACA,-1.51 ± 0.13,-0.139 ± 0.12
UCCCAGCAAUAUUACGAAUG,-2.98 ± 0.15,-2.61 ± 0.17
UCCCAGCAAUAUUACGAGGC,-2.23 ± 0.14,-0.738 ± 0.14
UCCCAGCAAUAUUACGAGUU,-3.85 ± 0.2,-2.45 ± 0.15
UCCCAGCAAUAUUACGAUCC,-1.93 ± 0.41,-1.58 ± 0.46
UCCCAGCAAUAUUACGAUUA,-1.71 ± 0.12,-1.36 ± 0.14
UCCCAGCAAUAUUACGCACU,-1.64 ± 0.12,-1.04 ± 0.14
UCCCAGCAAUAUUACGCAUG,-4.28 ± 0.22,-2.41 ± 0.19
UCCCAGCAAUAUUACGCCAU,-3.09 ± 0.18,-2.83 ± 0.38
UCCCAGCAAUAUUACGCCUA,-1.41 ± 0.078,-1.34 ± 0.08
UCCCAGCAAUAUUACGCGCA,-0.296 ± 0.093,-0.219 ± 0.089
UCCCAGCAAUAUUACGCUCA,-1.48 ± 0.11,-0.496 ± 0.11
UCCCAGCAAUAUUACGCUUU,-2.7 ± 0.16,-2 ± 0.15
UCCCAGCAAUAUUACGGAAU,-3.64 ± 0.18,-1.53 ± 0.12
UCCCAGCAAUAUUACGGACG,-3.93 ± 0.21,-1.97 ± 0.12

Sequence,self-splicing fitness (ln) (30 °C),self-splicing fitness (ln) (37 °C)
UCCCAGCAAUAUUACGGAGG,-3.51 ± 0.14,-2.23 ± 0.18
UCCCAGCAAUAUUACGGAUC,-2.71 ± 0.13,-1.64 ± 0.14
UCCCAGCAAUAUUACGGGCG,-0.841 ± 0.058,-0.455 ± 0.07
UCCCAGCAAUAUUACGGUGA,-1.57 ± 0.11,-1.02 ± 0.11
UCCCAGCAAUAUUACGGUUU,-1.23 ± 0.061,-0.274 ± 0.076
UCCCAGCAAUAUUACGUAUA,-2.5 ± 0.1,-1.33 ± 0.1
UCCCAGCAAUAUUACGUCUC,-3.23 ± 0.22,-2.89 ± 0.25
UCCCAGCAAUAUUACGUGCU,-3.59 ± 0.2,-2.92 ± 0.19
UCCCAGCAAUAUUACGUGGU,-1.53 ± 0.069,-0.339 ± 0.071
UCCCAGCAAUAUUACGUUAG,-4.08 ± 0.19,-2.78 ± 0.18
UCCCAGCAAUAUUACGUUCG,-3.65 ± 0.2,-2.96 ± 0.27
UCCGAGCAAUAUUACGCAGC,-4.03 ± 0.35,-2.51 ± 0.39
UCCGAGCAAUAUUACGCCAU,-2.56 ± 0.28,-3.16 ± 0.4
UCCGAGCAAUAUUACGCGGA,-2.27 ± 0.3,
UCCGAGCAAUAUUACGCUUC,,-2.37 ± 0.35
UCCGAGCAAUAUUACGGGCA,-1.79 ± 0.12,-0.787 ± 0.1
UCCGAGCAAUAUUACGGGUG,-1.97 ± 0.089,-1.66 ± 0.099
UCCGAGCAAUAUUACGGUUG,-3.29 ± 0.26,-3.07 ± 0.3
UCCGAGCAAUAUUACGUAUC,-2.88 ± 0.25,-2.07 ± 0.37
UCCGAGCAAUAUUACGUCCU,-2.6 ± 0.28,
UCCGAGCAAUAUUACGUCUU,-3.54 ± 0.25,-1.62 ± 0.2
UCCGAGCAAUAUUACGUGUC,,-2.64 ± 0.34
UCCGAGCAAUAUUACGUUAU,-3.95 ± 0.21,-1.93 ± 0.19
UCCGAGCAAUAUUACGUUCC,-3.5 ± 0.25,-3.16 ± 0.32
UCCGAGCAAUAUUACGUUGA,-2.17 ± 0.097,-0.915 ± 0.087

Sequence,self-splicing fitness (ln) (30 °C),self-splicing fitness (ln) (37 °C)
UCCUAGCAAUAUUACGACCA,-0.552 ± 0.22,-2.28 ± 0.35
UCCUAGCAAUAUUACGAUGG,-3.64 ± 0.23,-2.15 ± 0.21
UCCUAGCAAUAUUACGAUUU,-2.16 ± 0.16,-1.36 ± 0.21
UCCUAGCAAUAUUACGCAUC,-2.3 ± 0.21,-1.27 ± 0.22
UCCUAGCAAUAUUACGCCUU,-2.98 ± 0.33,-2.34 ± 0.35
UCCUAGCAAUAUUACGCUCG,-3.13 ± 0.21,
UCCUAGCAAUAUUACGGAGU,-3.81 ± 0.22,-1.3 ± 0.13
UCCUAGCAAUAUUACGGCAU,-3.31 ± 0.17,-2.2 ± 0.11
UCCUAGCAAUAUUACGGCGA,-0.128 ± 0.092,0.153 ± 0.1
UCCUAGCAAUAUUACGGGCG,-0.227 ± 0.093,-0.227 ± 0.11
UCCUAGCAAUAUUACGGGGU,-4.13 ± 0.29,-2.65 ± 0.2
UCCUAGCAAUAUUACGUCUG,-4.52 ± 0.41,-3.05 ± 0.21
UCCUAGCAAUAUUACGUGAA,-0.777 ± 0.078,-0.552 ± 0.1
UCCUAGCAAUAUUACGUGCC,-2.26 ± 0.33,-2.02 ± 0.39
UCCUAGCAAUAUUACGUUCU,-3.14 ± 0.14,-2.51 ± 0.13
UCCUAGCAAUAUUACGUUGG,-3.74 ± 0.27,-2.35 ± 0.2
UCCUAGCAAUAUUACGUUGU,,-1.99 ± 0.29
UCGAAGCAAUAUUACGACUA,-1.05 ± 0.16,-0.97 ± 0.13
UCGAAGCAAUAUUACGAGAG,-3.06 ± 0.43,-1.91 ± 0.25
UCGAAGCAAUAUUACGAGCA,-1.77 ± 0.14,0.162 ± 0.14
UCGAAGCAAUAUUACGAGCG,-1.04 ± 0.078,-0.114 ± 0.094
UCGAAGCAAUAUUACGAUUA,-1.19 ± 0.12,-0.794 ± 0.11
